Reference: patent publication US11278600B2, “Human alpha-galactosidase variants” (Codexis, Inc., priority 2014, dated 2022)
Changes are numbered by the printed parent chain.

B1: 371 (protein)
chain: LDNGLARTPTMGWLHWERFMCNLDCQEEPDSCISEKLFMEMAEWMVSEGWKDAGYEYLCIDDCWMAPQRDSEGRLQADPQRFPHGIRQLANYVHSKGLKLGIYADVGNKTCAGFPGSFGYYDIDAQTFADWGVDLLKFDGCYCDSLENLADGYKHMSLALNRTGRSIVYSCEWPLYMWPFQKPNYTEIRQYCNHWRNFADIDDSWKSIKSILDWTSRNQERIVDVAGPGGWNDPDMLVIGNFGLSWDQQVTQMALWAIMAAPLFMSNDLRHISPQAKALLQDKDVIAINQDPLGKQGYQLRKGDNFEVWERPLSGDAWAVAIINRQEIGGPRSYTIPVASLGKGVACNPACFITQLLPVKRQLGFYNWTSRLKSHINPTGTVLLQLENTMQMSLKDLL
modifications: Synthetic Polypeptide sequence of Variant No. 371 of mature Human GLA
B2: 488 (protein)
chain: LDNGLARTPTMGWLHWERFMCNLDCQEEPDSCISEKLFMEMAERMVSEGWKDAGYEYLCIDDCWMAPQRDSEGRLQADPQRFPHGIRQLANYVHSKGLKLGIYADVGNKTCAGFPGSFGYYDIDAQTFADWGVDLLKFDGCYCDSLENLADGYKHMSLALNRTGRSIVYSCEWPLYMWPFQKPNYTEIRQYCNHWRNFADIDDSWKSIKSILDWTSFNQERIVDVAGPGGWNDPDMLVIGNFGLSWNQQVTQMALWAIMAAPLFMSNDLRHISPQAKALLQDKDVIAINQDPLGKQGYQLRQGDNFEVWERPLSGLAWAVAMINRQEIGGPRSYTIAVASLGKGVACNPACFITQLLPVKRKLGFYEWTSRLRSHINPTGTVLLQLENNMQMSLKDLL
modifications: Synthetic Polypeptide sequence of Variant No. 488 of mature Human GLA
B3: 489 (protein)
chain: B2 chain with N389I
modifications: Synthetic Polypeptide sequence of Variant No. 489 of mature Human GLA
B4: 498 (protein)
chain: B2 chain with N389T, M392I
modifications: Synthetic Polypeptide sequence of Variant No. 498 of mature Human GLA
B5: 491 (protein)
chain: B2 chain with N389T, M390W
modifications: Synthetic Polypeptide sequence of Variant No. 491 of mature Human GLA
B6: 494 (protein)
chain: B2 chain with N389T, M390F
modifications: Synthetic Polypeptide sequence of Variant No. 494 of mature Human GLA
B7: 497 (protein)
chain: B2 chain with N389T, M390K
modifications: Synthetic Polypeptide sequence of Variant No. 497 of mature Human GLA
B8: 499 (protein)
chain: B2 chain with N389L
modifications: Synthetic Polypeptide sequence of Variant No. 499 of mature Human GLA
B9: 493 (protein)
chain: B2 chain with N389T, M392P
modifications: Synthetic Polypeptide sequence of Variant No. 493 of mature Human GLA
B10: 500 (protein)
chain: B2 chain with N389T, M390A
modifications: Synthetic Polypeptide sequence of Variant No. 500 of mature Human GLA
B11: 495 (protein)
chain: B2 chain with N389P
modifications: Synthetic Polypeptide sequence of Variant No. 495 of mature Human GLA
B12: 490 (protein)
chain: B2 chain with N389T, M390D
modifications: Synthetic Polypeptide sequence of Variant No. 490 of mature Human GLA
B13: 492 (protein)
chain: B2 chain with N389C
modifications: Synthetic Polypeptide sequence of Variant No. 492 of mature Human GLA
B14: 496 (protein)
chain: B2 chain with N389T, M390V
modifications: Synthetic Polypeptide sequence of Variant No. 496 of mature Human GLA

Tests used:
Type in all cases: biochemical
[1] = HTP-analysis of supernatants pretreated with acid (MUGal hydrolysis); conditions: activity of the variant/activity of Rd4BB (SEQ ID NO: 15); challenge at pH 3.7
Procedure, shortened: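 Supernatants from INVSc1 yeast secreting GLA variants were challenged at 37° C. for 1-3 h in McIlvaine buffer at pH 3.3-4.3. Residual activity was then measured on 4 mM MUGal substrate stock at pH 4.8 with citrate buffer pH 4.3, over 30-180 min at 37° C. Reactions were quenched with sodium carbonate and read by fluorescence (Ex 355/Em 448 nm).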

[2] = HTP-analysis of yeast culture supernatants, no challenge (MUGal hydrolysis); conditions: activity of the variant/activity of Rd4BB (SEQ ID NO: 15)
Procedure, shortened: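 GLA variants were expressed in INVSc1 yeast grown in SD-Ura broth with glucose at 30° C., and culture supernatants were collected after 66-84 h. Supernatant was mixed with McIlvaine buffer pH 4.8 and MUGal (2 mM stock) in 50 mM citrate, 200 mM KCl, pH 4.6, incubated at 37° C. for 30-180 minutes, then quenched with sodium carbonate.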

[3] = HTP-analysis of supernatants pretreated with base (MUGal hydrolysis); conditions: activity of the variant/activity of Rd4BB (SEQ ID NO: 15); challenge at pH 9.65
Procedure, shortened: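 GLA variants were secreted by transformed INVSc1 yeast grown 66-84 h at 30° C. Supernatants were exposed to neutral-to-basic buffers (pH 7.0-9.7) at 37° C for 1-18 h, then assayed with MUGal in acidic citrate/McIlvaine buffer, with fluorescence read after quenching.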

Molecule	Relative Activity of GLA Variants After Challenge at pH 3.7 [1]	Relative Activity of GLA Variants After No Challenge (NC) [2]	Relative Activity of GLA Variants After Challenge at pH 9.65 [3]
B1	− (<0.5 relative activity over Rd4BB (SEQ ID NO: 15))	+ (0.5 to 1.5 relative activity over Rd4BB (SEQ ID NO: 15))	+ (0.5 to 1.5 relative activity over Rd4BB (SEQ ID NO: 15))
B2	+ (0.5 to 1.5 relative activity over Rd4BB (SEQ ID NO: 15))	+ (0.5 to 1.5 relative activity over Rd4BB (SEQ ID NO: 15))	+ (0.5 to 1.5 relative activity over Rd4BB (SEQ ID NO: 15))
B3	+ (0.5 to 1.5 relative activity over Rd4BB (SEQ ID NO: 15))	+ (0.5 to 1.5 relative activity over Rd4BB (SEQ ID NO: 15))	+ (0.5 to 1.5 relative activity over Rd4BB (SEQ ID NO: 15))
B4	+ (0.5 to 1.5 relative activity over Rd4BB (SEQ ID NO: 15))	+ (0.5 to 1.5 relative activity over Rd4BB (SEQ ID NO: 15))	+ (0.5 to 1.5 relative activity over Rd4BB (SEQ ID NO: 15))
B5	+ (0.5 to 1.5 relative activity over Rd4BB (SEQ ID NO: 15))	+ (0.5 to 1.5 relative activity over Rd4BB (SEQ ID NO: 15))	+ (0.5 to 1.5 relative activity over Rd4BB (SEQ ID NO: 15))
B6	+ (0.5 to 1.5 relative activity over Rd4BB (SEQ ID NO: 15))	+ (0.5 to 1.5 relative activity over Rd4BB (SEQ ID NO: 15))	+ (0.5 to 1.5 relative activity over Rd4BB (SEQ ID NO: 15))
B7	++ (>1.5 to 2.5 relative activity over Rd4BB (SEQ ID NO: 15))	+ (0.5 to 1.5 relative activity over Rd4BB (SEQ ID NO: 15))	+ (0.5 to 1.5 relative activity over Rd4BB (SEQ ID NO: 15))
B8	+ (0.5 to 1.5 relative activity over Rd4BB (SEQ ID NO: 15))	+ (0.5 to 1.5 relative activity over Rd4BB (SEQ ID NO: 15))	+ (0.5 to 1.5 relative activity over Rd4BB (SEQ ID NO: 15))
B9	+ (0.5 to 1.5 relative activity over Rd4BB (SEQ ID NO: 15))	+ (0.5 to 1.5 relative activity over Rd4BB (SEQ ID NO: 15))	+ (0.5 to 1.5 relative activity over Rd4BB (SEQ ID NO: 15))
B10	+ (0.5 to 1.5 relative activity over Rd4BB (SEQ ID NO: 15))	+ (0.5 to 1.5 relative activity over Rd4BB (SEQ ID NO: 15))	+ (0.5 to 1.5 relative activity over Rd4BB (SEQ ID NO: 15))
B11	+ (0.5 to 1.5 relative activity over Rd4BB (SEQ ID NO: 15))	+ (0.5 to 1.5 relative activity over Rd4BB (SEQ ID NO: 15))	+ (0.5 to 1.5 relative activity over Rd4BB (SEQ ID NO: 15))
B12	+ (0.5 to 1.5 relative activity over Rd4BB (SEQ ID NO: 15))	+ (0.5 to 1.5 relative activity over Rd4BB (SEQ ID NO: 15))	+ (0.5 to 1.5 relative activity over Rd4BB (SEQ ID NO: 15))
B13	+ (0.5 to 1.5 relative activity over Rd4BB (SEQ ID NO: 15))	+ (0.5 to 1.5 relative activity over Rd4BB (SEQ ID NO: 15))	+ (0.5 to 1.5 relative activity over Rd4BB (SEQ ID NO: 15))
B14	+ (0.5 to 1.5 relative activity over Rd4BB (SEQ ID NO: 15))	+ (0.5 to 1.5 relative activity over Rd4BB (SEQ ID NO: 15))	+ (0.5 to 1.5 relative activity over Rd4BB (SEQ ID NO: 15))
